Data from patent US9605283B2, “Microorganism modified for the production of 1,3-propanediol” (INSTITUT NATIONAL DES SCIENCES APPLIQUÉES, priority 2012, dated 2017).
Changes are numbered by the printed parent chain. In names and notes the source's numbering stands.

What was measured:
[1] = substrate: CC(=O)C(=O)O; experiment: OHB decarboxylase / pyruvate decarboxylase kinetics, Zm-Pdc wild type; assay type: biochemical, Zymomonas mobilis; conditions: other: 37° C., pH 7, coupled to yeast alcohol dehydrogenase/NADH
From the text: (§1) Genomic DNAs of S. cerevisiae BY4741, and Z. mobilis (Lindner) Kluyver and van Niel (ATCC® 31821) were used as the template. […] Ligation products were transformed into competent E. coli DH5α cells (NEB). […] The corresponding protein sequences are represented by SEQ No. 208 and SEQ ID No. 208 128 respectively.
(§2) The plasmids were used to transform E. coli BL21 (DE3) star cells and the enzymes carrying an N-terminal hexa-His tag were expressed and purified as described in Example 1. Decarboxylase activity on 2-oxo-4-hydroxybutyrate (OHB), pyruvate (Sigma), and 4-methyl-2-oxovaleric acid (Sigma) was quantified.
(§3) OHB decarboxylase activity was assayed by coupling the decarboxylase activity to the NADPH-dependent reduction of the released 3-hydroxypropanal by purified aldehyde reductase, YqhD, from E. coli. The decarboxylation of pyruvate was coupled to the NADH-dependent reduction of acetaldehyde catalysed by yeast alcohol dehydrogenase. Branched-chain alpha-ketoacid decarboxylase activity was measured on 4-methyl-2-oxovaleric acid by coupling to the NADH-dependent reduction of 3-methylbutanal catalysed by horse liver alcohol dehydrogenase. […] Reactions were started by adding 20 mM 2-oxo-4-hydroxybutyrate (OHB), 10 mM 4-methyl-2-oxovaleric acid (MOV), or 5 mM pyruvate.

[2] = substrate: O=C(O)C(=O)CCO; experiment: as above; assay type: biochemical, Zymomonas mobilis; conditions: other: 37° C., pH 7, coupled to E. coli YqhD/NADPH
From the text: as §1, §2, §3

[3] = substrate: O=C(O)C(=O)CCO; experiment: OHB decarboxylase / pyruvate decarboxylase kinetics, Zm-Pdc W392L; assay type: biochemical, Zymomonas mobilis; conditions: other: 37° C., pH 7, coupled to E. coli YqhD/NADPH
Protocol: as §3
(§4) Site-directed mutagenesis of the L. lactis kdcA and the Z. mobilis Pdc genes was carried out using the oligonucleotide pairs listed in Table 9 and the pET28-Ll-kdcA and pET28-Zm-Pdc plasmids, respectively, as the template.
(§5) Mutant enzymes were expressed, purified and tested for OHB decarboxylase, pyruvate decarboxylase and MOV decarboxylase activity as described in Example 4.

[4] = substrate: CC(=O)C(=O)O; experiment: OHB decarboxylase / pyruvate decarboxylase kinetics, Zm-Pdc W392Q; assay type: biochemical, Zymomonas mobilis; conditions: other: 37° C., pH 7, coupled to yeast alcohol dehydrogenase/NADH
Protocol: as §3, §4, §5

[5] = substrate: O=C(O)C(=O)CCO; experiment: as above; assay type: biochemical, Zymomonas mobilis; conditions: other: 37° C., pH 7, coupled to E. coli YqhD/NADPH
Protocol: as §3, §4, §5

[6] = substrate: O=C(O)C(=O)CCO; experiment: OHB decarboxylase / pyruvate decarboxylase kinetics, Zm-Pdc G413N; assay type: biochemical, Zymomonas mobilis; conditions: other: 37° C., pH 7, coupled to E. coli YqhD/NADPH
Protocol: as §3, §4, §5

[7] = substrate: CC(C)CC(=O)C(=O)O; experiment: OHB decarboxylase / branched-chain alpha-ketoacid decarboxylase kinetics, Ll-KdcA wild type; assay type: biochemical, Lactococcus lactis B1157-NIZO; conditions: other: 37° C., pH 7, coupled to horse liver alcohol dehydrogenase/NADH
From the text: (§6) The branched-chain alpha-ketoacid decarboxylase encoding gene Ll-kdcA from L. lactis B1157-NIZO was codon-optimized for expression in E. coli. […] The resulting pET28-Ll-kdcA plasmid was shown by DNA sequencing to have the correct sequence.
as §2, §3

[8] = substrate: O=C(O)C(=O)CCO; experiment: as above; assay type: biochemical, Lactococcus lactis B1157-NIZO; conditions: other: 37° C., pH 7, coupled to E. coli YqhD/NADPH
From the text: as §6, §2, §3

[9] = substrate: CC(C)CC(=O)C(=O)O; experiment: OHB decarboxylase / MOV decarboxylase kinetics, Ll-KdcA G402S; assay type: biochemical, Lactococcus lactis; conditions: other: 37° C., pH 7, coupled to horse liver alcohol dehydrogenase/NADH
Protocol: as §3, §4, §5

[10] = substrate: O=C(O)C(=O)CCO; experiment: as above; assay type: biochemical, Lactococcus lactis; conditions: other: 37° C., pH 7, coupled to E. coli YqhD/NADPH
Protocol: as §3, §4, §5

[11] = substrate: CC(C)CC(=O)C(=O)O; experiment: OHB decarboxylase / MOV decarboxylase kinetics, Ll-KdcA V461I; assay type: biochemical, Lactococcus lactis; conditions: other: 37° C., pH 7, coupled to horse liver alcohol dehydrogenase/NADH
Protocol: as §3, §4, §5

[12] = substrate: O=C(O)C(=O)CCO; experiment: as above; assay type: biochemical, Lactococcus lactis; conditions: other: 37° C., pH 7, coupled to E. coli YqhD/NADPH
Protocol: as §3, §4, §5

B1: Zymomonas mobilis pyruvate decarboxylase Zm-Pdc, wild type, SEQ ID No. 128 (Zymomonas mobilis subsp. mobilis ZM4 = ATCC 31821) (protein)
chain: MSYTVGTYLAERLVQIGLKHHFAVAGDYNLVLLDNLLLNKNMEQVYCCNELNCGFSAEGYARAKGAAAAVVTYSVGALSAFDAIGGAYAENLPVILISGAPNNNDHAAGHVLHHALGKTDYHYQLEMAKNITAAAEAIYTPEEAPAKIDHVIKTALREKKPVYLEIACNIASMPCAAPGPASALFNDEASDEASLNAAVEETLKFIANRDKVAVLVGSKLRAAGAEEAAVKFADALGGAVATMAAAKSFFPEENPHYIGTSWGEVSYPGVEKTMKEADAVIALAPVFNDYSTTGWTDIPDPKKLVLAEPRSVVVNGIRFPSVHLKDYLTRLAQKVSKKTGALDFFKSLNAGELKKAAPADPSAPLVNAEIARQVEALLTPNTTVIAETGDSWFNAQRMKLPNGARVEYEMQWGHIGWSVPAAFGYAVGAPERRNILMVGDGSFQLTAQEVAQMVRLKLPVIIFLINNYGYTIEVMIHDGPYNNIKNWDYAGLMEVFNGNGGYDSGAGKGLKAKTGGELAEAIKVALANTDGPTLIECFIGREDCTEELVKWGKRVAAANSRKPVNKLL
notes: hexa-His (N); made in house; host or cells: E. coli BL21 (DE3) star
- Km [1]: 2500 µM
- Km [2]: 1500 µM

B2: Zymomonas mobilis pyruvate decarboxylase Zm-Pdc variant W392L, SEQ ID No. 192 (Zymomonas mobilis subsp. mobilis ZM4 = ATCC 31821; W392L) (protein)
chain: B1 chain with W392L
- Km [3]: 3700 µM

B3: Zymomonas mobilis pyruvate decarboxylase Zm-Pdc variant W392Q, SEQ ID No. 190 (Zymomonas mobilis subsp. mobilis ZM4 = ATCC 31821; W392Q) (protein)
chain: B1 chain with W392Q
- Km [4]: 9200 µM
- Km [5]: 2900 µM

B4: Zymomonas mobilis pyruvate decarboxylase Zm-Pdc variant G413N, SEQ ID No. 194 (Zymomonas mobilis subsp. mobilis ZM4 = ATCC 31821; G413N) (protein)
chain: B1 chain with G413N
- Km [6]: 1400 µM

B5: Lactococcus lactis branched-chain alpha-ketoacid decarboxylase Ll-KdcA, wild type, SEQ ID No. 130 (Lactococcus lactis) (protein)
chain: MYTVGDYLLDRLHELGIEEIFGVPGDYNLQFLDQIISREDMKWIGNANELNASYMADGYARTKKAAAFLTTFGVGELSAINGLAGSYAENLPVVEIVGSPTSKVQNDGKFVHHTLADGDFKHFMKMHEPVTAARTLLTAENATYEIDRVLSQLLKERKPVYINLPVDVAAAKAEKPALSLEKESSTTNTTEQVILSKIEESLKNAQKPVVIAGHEVISFGLEKTVTQFVSETKLPITTLNFGKSAVDESLPSFLGIYNGKLSEISLKNFVESADFILMLGVKLTDSSTGAFTHHLDENKMISLNIDEGIIFNKVVEDFDFRAVVSSLSELKGIEYEGQYIDKQYEEFIPSSAPLSQDRLWQAVESLTQSNETIVAEQGTSFFGASTIFLKSNSRFIGQPLWGSIGYTFPAALGSQIADKESRHLLFIGDGSLQLTVQELGLSIREKLNPICFIINNDGYTVEREIHGPTQSYNDIPMWNYSKLPETFGATEDRVVSKIVRTENEFVSVMKEAQADVNRMYWIELVLEKEDAPKLLKKMGKLFAEQNK
- Km [7]: 150 µM
- Km [8]: 4000 µM

B6: Lactococcus lactis branched chain 2-oxoacid decarboxylase Ll-KdcA variant G402S, SEQ ID No. 196 (Lactococcus lactis; G402S) (protein)
chain: B5 chain with G402S
- Km [9]: 1500 µM
- Km [10]: 1500 µM

B7: Lactococcus lactis branched chain 2-oxoacid decarboxylase Ll-KdcA variant V461I, SEQ ID No. 198 (Lactococcus lactis; V461I) (protein)
chain: B5 chain with V461I
- Km [11]: 150 µM
- Km [12]: 2800 µM
